This note sets out measurements from patent publication US20040126860.

Changes are numbered by the printed parent chain.

For the data set, the target named is purified complex of human cardiac RLC, human ventricular ELC and the β-myosin heavy chain light chain binding fragment (aa778-840), P10916.
Chain of purified complex of human cardiac RLC, human ventricular ELC and the β-myosin heavy chain light chain binding fragment (aa778-840), P10916 (P10916 2-166, chain 1 of 3): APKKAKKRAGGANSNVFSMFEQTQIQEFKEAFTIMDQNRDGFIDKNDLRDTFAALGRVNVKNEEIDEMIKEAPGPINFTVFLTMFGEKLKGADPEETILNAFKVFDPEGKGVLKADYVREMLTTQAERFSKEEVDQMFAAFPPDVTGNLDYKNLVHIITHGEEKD
Chain of purified complex of human cardiac RLC, human ventricular ELC and the β-myosin heavy chain light chain binding fragment (aa778-840), P10916 (chain, as listed by the source, chain 2 of 3): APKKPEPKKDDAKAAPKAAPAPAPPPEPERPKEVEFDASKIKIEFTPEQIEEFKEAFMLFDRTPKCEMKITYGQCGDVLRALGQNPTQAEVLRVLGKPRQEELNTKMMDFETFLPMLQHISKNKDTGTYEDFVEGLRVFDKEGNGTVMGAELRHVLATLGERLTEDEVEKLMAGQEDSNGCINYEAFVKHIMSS
Chain of purified complex of human cardiac RLC, human ventricular ELC and the β-myosin heavy chain light chain binding fragment (aa778-840), P10916 (chain, as listed by the source, chain 3 of 3): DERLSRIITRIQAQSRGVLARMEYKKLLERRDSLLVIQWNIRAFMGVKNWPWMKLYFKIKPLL

B1: mutant human cMLCK (ala 87 val, ala 95 glu), full length, with amino-terminal FLAG tag (protein)
chain: MATENGAVELGIQNPSTDKAPKGPTGERPLAAGKDPGPPDPKKAPDPPTLKKDAKAPASEKGDGTLAQPSTSSQGPKGEGDRGGGPVEGSAGPPEALPQQTATPETSVKKPKAEQGASGSQDPGKPRVGKKAAEGQAAARRGSPAFLHSPSCPAIISSSEKLLAKKPPSEASELTFEGVPMTHSPTDPRPAKAEEGKNILAESQKEVGEKTPGQAGQAKMQGDTSRGIEFQAVPSEKSEVGQALCLTAREEDCFQILDDCPPPPAPFPHRMVELRTGNVSSEFSMNSKEALGGGKFGAVCTCMEKATGLKLAAKVIKKQTPKDKEMVLLEIEVMNQLNHRNLIQLYAAIETPHEIVLFMEYIEGGELFERIVDEDYHLTEVDTMVFVRQICDGILFMHKMRVLHLDLKPENILCVNTTGHLVKIIDFGLARRYNPNEKLKVNFGTPEFLSPEVVNYDQISDKTDMWSMGVITYMLLSGLSPFLGDDDTETLNNVLSGNWYFDEETFEAVSDEAKDFVSNLIVKDQRARMNAAQCLAHPWLNNLAEKAKRCNRRLKSQILLKKYLMKRRWKKNFIAVSAANRFKKISSSGALMALGV
Regarding B1, the K, (printed so; presumably Km) is 17 µM and the Vmax (pmoles min^-1 ng^-1) worked out at 216.

B2: human cardiac myosin light chain kinase (cMLCK), full length, wild type, with amino-terminal FLAG tag (protein)
chain: B1 chain with V87A, E95A
For the protein B2, the K, (printed so; presumably Km) came to 6 µM and the Vmax (pmoles min^-1 ng^-1) worked out at 115.
